Columns and labels:
[1] = molecular target: blocked scFv having a caspase 3 protease substrate in the peptide linker (H6-MG VH / HL1-TO1 VL), peptide construct SEQ ID NO:51, displayed on yeast; experiment: cell-based or functional assay
[2] = molecular target: blocked scFv having an HRV-3C protease substrate in the peptide linker (H6-MG VH / HL1-TO1 VL), pept; experiment: cell-based or functional assay

Substance	time to complete activation of MG fluorescence, 10^6 yeast cells with 1 unit of caspase 3 protease at 25 C [1] [min]	time to complete activation of MG fluorescence, 10^6 yeast cells with 1 unit of HRV-3C protease at 25 C [2] [min]
caspase 3 protease (enzyme)	30	
Human Rhinovirus 3C protease (enzyme)		30
